# Assay results reported in patent US20220025021A1 (BETH ISRAEL DEACONESS MEDICAL CENTER, published 2022).
# Numbering of substitutions follows the chain as printed.
# B1: MS-101 (antibody)
# VH: not shown
# VL: DFVLTQSPHSLSVTPGEPASISCKSSHSLIHGDRNNYLAWYVQKPGRSPQLLIYLASSRASGVPDRFSGSGSDKDFTLKISRVEAEDVGTYYCMQGRESPWTFGQGTKVDIKRTVAAPSVFIFPPSDEQLKSGTASVVCLLNNFYPREAKVQWKVDNALQSGNSQESVTEQDSKDSTYSLSSTLTLSKADYEKHKVYACEVTHQGLSSPVTKSFNRGEC
# B2: MS-110 (antibody)
# VH: not shown
# VL: B1 VL with H9L
# B3: MS-103 (antibody)
# VH: not shown
# VL: B1 VL with F2I, H9L, A85T
# B4: MS-109 (antibody)
# VH: not shown
# VL: B1 VL with H9L, D73G, A85T
# B5: MS-113 (antibody)
# VH: not shown
# VL: B1 VL with F2I, H9L, D73G, A85T
# B6: MS-104 (antibody)
# VH: not shown
# VL: B1 VL with F2I, H9L, P18S, D73G, A85T
# B7: MS-118 (antibody)
# VH: not shown
# VL: B1 VL with F2I, H9L, D73G
# B8: MS-108 (antibody)
# VH: not shown
# VL: B1 VL with F2I, P18S, D73G
# B9: MS-114 (antibody)
# VH: not shown
# VL: B1 VL with F2I, H9L
# B10: MS-116 (antibody)
# VH: not shown
# VL: B1 VL with F2I, D73G
# B11: MS-115 (antibody)
# VH: not shown
# VL: B1 VL with F2I, H9L, P18S, D73G
# B12: MS-105 (antibody)
# VH: not shown
# VL: B1 VL with F2I, H9L, P18S
# B13: MS-102 (antibody)
# VH: not shown
# VL: B1 VL with P18S, D73G
# B14: MS-111 (antibody)
# VH: not shown
# VL: B1 VL with H9L, P18S, D73G
# B15: MS-107 (antibody)
# VH: not shown
# VL: B1 VL with F2I
# B16: MS-106 (antibody)
# VH: not shown
# VL: B1 VL with F2I, D73G, A85T
# B17: MS-112 (antibody)
# VH: not shown
# VL: B1 VL with D73G
# B18: MS-117 (antibody)
# VH: not shown
# VL: B1 VL with H9L, D73G
# Biological target: HIV-1 pseudovirus SC05.8C11.2344 (envelope glycoprotein) (HIV-1)
# Assay: cell-based or functional assay
Binder,neutralization IC50 [µg/mL],neutralization IC80 [µg/mL]
B1,0.819,2.69
B2,0.914,3.1
B3,0.707,2.44
B4,0.546,1.85
B5,0.573,1.94
B6,0.512,1.73
B7,0.449,1.54
B8,0.428,1.45
B9,0.81,3.86
B10,0.456,1.62
B11,0.436,1.51
B12,0.794,2.73
B13,0.527,1.42
B14,0.496,1.69
B15,0.658,2.28
B16,0.411,1.44
B17,0.501,1.68
B18,0.432,1.48

# Biological target: HIV-1 pseudovirus 263-8 (envelope glycoprotein) (HIV-1)
# Assay: cell-based or functional assay
Binder,neutralization IC50 [µg/mL],neutralization IC80 [µg/mL]
B1,0.011,0.041
B2,0.01,0.038
B3,0.018,0.07
B4,0.01,0.033
B5,0.018,0.052
B6,0.014,0.052
B7,0.011,0.039
B8,0.012,0.042
B9,0.018,0.066
B10,0.011,0.042
B11,0.013,0.037
B12,0.017,0.062
B13,0.007,0.027
B14,0.016,0.045
B15,0.016,0.055
B16,0.011,0.039
B17,0.013,0.037
B18,0.01,0.029

# Biological target: HIV-1 pseudovirus Ce1176_A3 (envelope glycoprotein) (HIV-1)
# Assay: cell-based or functional assay
Binder,neutralization IC50 [µg/mL],neutralization IC80 [µg/mL]
B1,0.043,1.94
B2,0.097,2.5
B3,0.172,3.13
B4,0.078,5.83
B5,0.182,6.05
B6,0.218,6.11
B7,0.26,8.12
B8,0.117,3.84
B9,0.139,7.39
B10,0.145,3.12
B11,0.18,6.3
B12,0.172,3.39
B13,0.039,2.75
B14,0.082,3.12
B15,0.147,3.99
B16,0.099,3.43
B17,0.068,2.03
B18,0.113,2.17

# Biological target: HIV-1 pseudovirus X1193_c1 (envelope glycoprotein) (HIV-1)
# Assay: cell-based or functional assay
Binder,neutralization IC50 [µg/mL],neutralization IC80 [µg/mL]
B1,0.098,0.602
B2,0.106,0.677
B3,0.112,0.502
B4,0.073,0.467
B5,0.098,0.421
B6,0.063,0.388
B7,0.085,0.287
B8,0.083,0.545
B9,0.124,0.404
B10,0.064,0.222
B11,0.08,0.274
B12,0.067,0.417
B13,0.071,0.412
B14,0.109,0.352
B15,0.13,0.57
B16,0.093,0.394
B17,0.069,0.293
B18,0.064,0.226

# Biological target: HIV-1 pseudovirus AC10.0.29 (envelope glycoprotein) (HIV-1)
# Assay: cell-based or functional assay
Binder,neutralization IC50 [µg/mL],neutralization IC80 [µg/mL]
B1,0.045,0.221
B2,0.076,0.285
B3,0.07,0.334
B4,0.04,0.199
B5,0.052,0.245
B6,0.041,0.208
B7,0.056,0.273
B8,0.045,0.216
B9,0.066,0.313
B10,0.052,0.258
B11,0.049,0.249
B12,0.051,0.394
B13,0.047,0.168
B14,0.061,0.258
B15,0.079,0.397
B16,0.062,0.299
B17,0.056,0.262
B18,0.051,0.252

# Biological target: HIV-1 pseudovirus 6952.v1.c20 (envelope glycoprotein) (HIV-1)
# Assay: cell-based or functional assay
Binder,neutralization IC50 [µg/mL],neutralization IC80 [µg/mL]
B1,0.254,3.51
B2,0.195,2.12
B3,0.485,5.95
B4,0.188,1.74
B5,0.351,5.03
B6,0.457,8.61
B7,0.392,12.2
B8,0.323,3.37
B9,0.146,1.37
B10,0.341,7.51
B11,0.303,4.7
B12,0.706,9.49
B13,0.162,2.53
B14,0.213,2.1
B15,0.457,8.87
B16,0.216,3.8
B17,0.16,1.47
B18,0.208,3.84
